# From the Immune Epitope Database (IEDB)
# Tests used:
# HLA-B*15:03 = assay: IEDB peptide-MHC binding, purified MHC/competitive/radioactivity; filed as Kd, often an IC50 or EC50 that approximates it; ≥ and ≤ were set here for values at or beyond the usual limits of such assays; conditions: source organism: Vaccinia virus WR
# HLA-B*51:01 [1] = assay: IEDB peptide-MHC binding, purified MHC/direct/fluorescence; filed as Kd, often an IC50 or EC50 that approximates it; ≥ and ≤ were set here for values at or beyond the usual limits of such assays
# HLA-B*07:02 = assay: as above
# HLA-A*02:19 = assay: IEDB peptide-MHC binding, purified MHC/competitive/fluorescence; filed as Kd, often an IC50 or EC50 that approximates it; ≥ and ≤ were set here for values at or beyond the usual limits of such assays
# HLA-A*02:01 [2] = assay: as above
# HLA-A*30:01 = assay: IEDB peptide-MHC binding, purified MHC/competitive/radioactivity; filed as Kd, often an IC50 or EC50 that approximates it; ≥ and ≤ were set here for values at or beyond the usual limits of such assays
# HLA-B*57:01 [3] = assay: as above
# HLA-B*58:01 [4] = assay: as above
# HLA-A*02:03 = assay: IEDB peptide-MHC binding, purified MHC/competitive/fluorescence; filed as Kd, often an IC50 or EC50 that approximates it; ≥ and ≤ were set here for values at or beyond the usual limits of such assays
# HLA-A*02:11 = assay: as above
# HLA-A*69:01 = assay: as above
# HLA-B*15:17 [5] = assay: IEDB peptide-MHC binding, purified MHC/direct/fluorescence; filed as Kd, often an IC50 or EC50 that approximates it; ≥ and ≤ were set here for values at or beyond the usual limits of such assays
# HLA-B*57:01 [6] = assay: as above
# HLA-B*58:01 [7] = assay: as above
# HLA-B*08:01 [8] = assay: IEDB peptide-MHC binding, purified MHC/competitive/radioactivity; filed as Kd, often an IC50 or EC50 that approximates it; ≥ and ≤ were set here for values at or beyond the usual limits of such assays
# HLA-B*15:01 [9] = assay: as above
# HLA-A*32:01 = assay: as above
# HLA-B*35:01 = assay: as above; conditions: source organism: Dengue virus 3 Martinique/1243/1999
# HLA-B*53:01 = assay: as above; conditions: source organism: Dengue virus 3 Martinique/1243/1999
# HLA-A*31:01 = assay: IEDB peptide-MHC binding, purified MHC/direct/fluorescence; filed as Kd, often an IC50 or EC50 that approximates it; ≥ and ≤ were set here for values at or beyond the usual limits of such assays; conditions: source organism: Mycobacterium tuberculosis C
# HLA-A*03:01 = assay: as above; conditions: source organism: Mycobacterium tuberculosis C
# HLA-A*11:01 = assay: as above; conditions: source organism: Mycobacterium tuberculosis C
# HLA-B*48:01 = assay: as above; conditions: source organism: Mycobacterium tuberculosis C
# HLA-B*40:01 = assay: as above; conditions: source organism: Mycobacterium tuberculosis C
# HLA-B*08:01 [10] = assay: as above; conditions: source organism: Mycobacterium tuberculosis C
# HLA-B*44:02 = assay: as above; conditions: source organism: Mycobacterium tuberculosis C
# HLA-B*15:01 [11] = assay: as above
# HLA-B*18:01 = assay: as above; conditions: source organism: Mycobacterium tuberculosis C
# HLA-A*01:01 = assay: as above; conditions: source organism: Mycobacterium tuberculosis C
# HLA-B*46:01 [12] = assay: as above; conditions: source organism: Mycobacterium tuberculosis C
# HLA-B*51:01 [13] = assay: IEDB peptide-MHC binding, purified MHC/competitive/fluorescence; filed as Kd, often an IC50 or EC50 that approximates it; ≥ and ≤ were set here for values at or beyond the usual limits of such assays
# HLA-A*02:01 [14] = assay: IEDB peptide-MHC binding, purified MHC/direct/fluorescence; filed as Kd, often an IC50 or EC50 that approximates it; ≥ and ≤ were set here for values at or beyond the usual limits of such assays; conditions: source organism: Mus musculus
# HLA-A*26:01 = assay: IEDB peptide-MHC binding, purified MHC/competitive/fluorescence; filed as Kd, often an IC50 or EC50 that approximates it; ≥ and ≤ were set here for values at or beyond the usual limits of such assays; conditions: source organism: Mus musculus
# HLA-B*15:17 [15] = assay: as above; conditions: source organism: Mus musculus
# HLA-B*57:01 [16] = assay: as above; conditions: source organism: Mus musculus
# HLA-B*39:01 = assay: as above; conditions: source organism: Mus musculus
# HLA-B*15:01 [17] = assay: as above; conditions: source organism: Mus musculus
# HLA-B*46:01 [18] = assay: as above; conditions: source organism: Mus musculus
# HLA-B*27:03 = assay: as above; conditions: source organism: Mus musculus
# [19] = source organism: Mammarenavirus lassaense
# [20] = source organism: Bacillus anthracis str. A0488
# [21] = source organism: Dengue virus 4 Dominica/814669/1981
# [22] = source organism: Human immunodeficiency virus 1
# [23] = source organism: Dengue virus 3 Martinique/1243/1999
# [24] = source organism: Dengue virus 2 Jamaica/1409/1983
# [25] = source organism: Burkholderia pseudomallei 305
# [26] = source organism: West Nile virus
# [27] = source organism: Bacillus anthracis
# [28] = source organism: Vaccinia virus WR
# [29] = source organism: Human immunodeficiency virus type 1 BH10
# [30] = source organism: Mycobacterium tuberculosis C
# [31] = source organism: Giardia lamblia ATCC 50803
# [32] = source organism: Burkholderia vietnamiensis G4
sequence,measurement,setting,value
ALVFGRRLF,Kd,HLA-B*15:03,1130 nM
AVKAGACML,Kd,HLA-B*51:01 [1]; [19],≥ 20000 nM
same,Kd,HLA-B*07:02; [19],2470 nM
DMNLEQWSV,Kd,HLA-A*02:19; [20],11.7 nM
same,Kd,HLA-A*02:01 [2]; [20],≥ 20000 nM
FLRLSANLF,Kd,HLA-B*15:03,0.119 nM
GASRRSWPLN,Kd,HLA-A*30:01; [21],3720 nM
same,Kd,HLA-B*57:01 [3]; [21],12800 nM
same,Kd,HLA-B*58:01 [4]; [21],6020 nM
GGWRFQGSW,Kd,HLA-B*57:01 [3]; source organism: Dengue virus 1 Brazil/97-11/1997,8.56 nM
GLADQLIHL,Kd,HLA-A*02:03; [22],2 nM
same,Kd,HLA-A*02:11; [22],0.3 nM
same,Kd,HLA-A*02:19; [22],17.3 nM
same,Kd,HLA-A*69:01; [22],11700 nM
same,Kd,HLA-A*02:01 [2]; [22],≤ 0.1 nM
GMSKEPGVVS,Kd,HLA-B*58:01 [4]; [23],1150 nM
GPSLRTTTV,Kd,HLA-B*51:01 [1]; source organism: dengue virus type 1,≥ 20000 nM
ICSAVPSHW,Kd,HLA-B*15:17 [5]; source organism: dengue virus type 2,416 nM
same,Kd,HLA-B*57:01 [3]; [24],2.72 nM
IITASILLW,Kd,HLA-B*57:01 [3]; [24],11.1 nM
same,Kd,HLA-B*58:01 [4]; [24],14.4 nM
IPDGWWWAI,Kd,HLA-A*02:11; [25],71.2 nM
same,Kd,HLA-A*02:01 [2]; [25],93 nM
ISGKSTDMW,Kd,HLA-B*15:17 [5]; [26],123 nM
same,Kd,HLA-B*57:01 [6]; [26],890 nM
ISGPIKHPL,Kd,HLA-B*15:17 [5]; [27],88.3 nM
same,Kd,HLA-B*57:01 [6]; [27],280 nM
same,Kd,HLA-B*58:01 [7]; [27],≥ 20000 nM
KAIKILIGF,Kd,HLA-B*58:01 [4]; [21],7.66 nM
KASLIEVKTC,Kd,HLA-B*57:01 [3]; [23],249 nM
same,Kd,HLA-B*58:01 [4]; [23],270 nM
KIFFRPTTI,Kd,HLA-A*30:01; [28],16.8 nM
same,Kd,HLA-B*15:03,2660 nM
same,Kd,HLA-B*08:01 [8]; [28],1740 nM
same,Kd,HLA-B*15:01 [9]; [28],93 nM
same,Kd,HLA-A*32:01; [28],1.09 nM
KKVCFVNKL,Kd,HLA-B*15:03,4.51 nM
KKYNVRYVF,Kd,HLA-B*15:03,1.01 nM
LASVALNMF,Kd,HLA-B*15:03,411 nM
LEVRFGNDV,Kd,HLA-B*15:03,1340 nM
LKTTFVHPF,Kd,HLA-B*15:03,1.32 nM
LLQLTVWGI,Kd,HLA-A*02:03; [29],146 nM
same,Kd,HLA-A*02:11; [29],4.3 nM
same,Kd,HLA-A*02:19; [29],≤ 0.1 nM
same,Kd,HLA-A*02:01 [2]; [29],19 nM
LMSEETIDF,Kd,HLA-B*15:03,11.6 nM
LQAKSGSSL,Kd,HLA-B*15:03,0.326 nM
same,Kd,HLA-B*15:01 [9]; [28],4.6 nM
LRFLEKTSF,Kd,HLA-B*15:03,2.23 nM
MAMTDTTPF,Kd,HLA-B*35:01,1.81 nM
same,Kd,HLA-B*53:01,5.45 nM
same,Kd,HLA-B*58:01 [4]; [23],10.7 nM
same,Kd,HLA-B*08:01 [8]; [23],229 nM
same,Kd,HLA-B*15:01 [9]; [23],11.9 nM
same,Kd,HLA-A*32:01; [23],242 nM
MSSGNLLFTG,Kd,HLA-B*57:01 [3]; [24],163 nM
same,Kd,HLA-B*58:01 [4]; [24],916 nM
MSSSQDLSF,Kd,HLA-B*15:03,108 nM
same,Kd,HLA-B*15:01 [9]; [28],15.9 nM
PTAGILKRW,Kd,HLA-B*57:01 [3]; [24],200 nM
PTSRTTWSIH,Kd,HLA-A*30:01; [24],4070 nM
same,Kd,HLA-B*57:01 [3]; [24],7680 nM
same,Kd,HLA-B*58:01 [4]; [24],2620 nM
RFRNHMCLV,Kd,HLA-A*30:01; [28],31.3 nM
same,Kd,HLA-B*15:03,≥ 42800 nM
same,Kd,HLA-B*08:01 [8]; [28],864 nM
same,Kd,HLA-B*15:01 [9]; [28],4090 nM
same,Kd,HLA-A*32:01; [28],≥ 77800 nM
RSWPLNEAI,Kd,HLA-B*58:01 [4]; [24],7.1 nM
same,Kd,HLA-A*32:01; [24],87 nM
TPKIRFWHV,Kd,HLA-A*31:01,≥ 20000 nM
same,Kd,HLA-A*03:01,≥ 20000 nM
same,Kd,HLA-B*57:01 [6]; [30],≥ 20000 nM
same,Kd,HLA-A*11:01,≥ 20000 nM
same,Kd,HLA-B*48:01,≥ 20000 nM
same,Kd,HLA-B*58:01 [7]; [30],≥ 20000 nM
same,Kd,HLA-B*40:01,≥ 20000 nM
same,Kd,HLA-B*08:01 [10],91.5 nM
same,Kd,HLA-B*44:02,≥ 20000 nM
same,Kd,HLA-B*15:01 [11]; [30],≥ 20000 nM
same,Kd,HLA-B*18:01,≥ 20000 nM
same,Kd,HLA-A*01:01,≥ 20000 nM
same,Kd,HLA-B*46:01 [12],≥ 20000 nM
same,Kd,HLA-B*07:02; [30],≥ 20000 nM
same,Kd,HLA-B*51:01 [13]; [30],≥ 20000 nM
VLRQAALSL,Kd,HLA-B*15:01 [11]; [31],44 nM
same,Kd,HLA-B*51:01 [1]; [31],≥ 20000 nM
same,Kd,HLA-B*07:02; [31],13 nM
VLWKSYPLV,Kd,HLA-A*02:01 [14],0.3 nM
same,Kd,HLA-A*26:01,≥ 20000 nM
same,Kd,HLA-B*15:17 [15],≥ 20000 nM
same,Kd,HLA-B*57:01 [16],≥ 20000 nM
same,Kd,HLA-B*39:01,≥ 20000 nM
same,Kd,HLA-A*69:01; source organism: Mus musculus,≥ 20000 nM
same,Kd,HLA-B*15:01 [17],≥ 20000 nM
same,Kd,HLA-B*46:01 [18],≥ 20000 nM
same,Kd,HLA-B*27:03,≥ 20000 nM
same,Kd,HLA-B*51:01 [13]; source organism: Mus musculus,≥ 20000 nM
VPGFHGWAT,Kd,HLA-B*51:01 [1]; source organism: Amur virus,≥ 20000 nM
same,Kd,HLA-B*07:02; source organism: Amur virus,115 nM
WFMTWQPNI,Kd,HLA-A*02:19; [32],52.8 nM
same,Kd,HLA-A*02:01 [2]; [32],540 nM
